Data reported in patent US20240101667A1, “METHODS FOR IDENTIFYING LILRB-BLOCKING ANTIBODIES” (THE BOARD OF REGENTS OF THE UNIVERSITY OF TEXAS SYSTEM, priority 2020, published 2024).

B1: anti-LILRB3 #6: anti-LILRB3 antibody which cannot inhibit LILRB3 signaling; B3-6 VH SEQ ID NO: 345, VL SEQ ID NO: 399 (antibody, V domains shown)
VH: QVQLQQSGPGLVKPSQTLSLTCAISGDSVSSNSAAWNWIRQSPSRGLEWLGRTYYRSKWYNNYAVSVKSRITINPDTSKNQFSLQLNSVTPEDTAVYYCARALAGIDGFDVWGQGTTVSVSS
VL: AIQLTQSPSSLSASVGDRITITCRASQSISKYLNWYQQKPGEAPKLLIYAASSLQSGVPSRFSGSGSGTDFTLTISSLQPEDFATYYCQEKDNFGQGTKLEIK
modifications: Synthetic antibody
B2: #1: fully human anti-LILRB3 blocking IgG, epitope bin 3; B3-1 VH SEQ ID NO: 341, VL SEQ ID NO: 395 (antibody, V domains shown)
VH: EVQLVESGGGVVQPGRSLRLSCAASGFTFSSYGMHWVRQAPGKGLEWVAFIRYDGSNKYYADSVKGRFTISRDNSKNTLYLQMNSLRAEDTAVYYCAKAGFSGWYYYGMDVWGQGTMVTVSS
VL: DIVMTQSPSSLSASVGDRLTITCRASQSISTYLNWYQQKPGKAPKLLIYGASSLQSGVPSRFSGSGSGTDFTLTISSLQPEDFATYFCQQSYGLPLTFGGGTKVDIK
modifications: Synthetic antibody
B3: #26: fully human anti-LILRB3 IgG, epitope bin 3; B3-26 VH SEQ ID NO: 353, VL SEQ ID NO: 407 (antibody, V domains shown)
VH: QVQMVESGGGLVKPGGSLRLSCAASGFTFSDHYLSWIRQAPGKGLEWVSYIDLSGSTVYYGDSVKGRFTISRDNARNSVYLQMNSLRAEDTAVYYCARGHYGLDVWGQGTMVTVSS
VL: NIQMTQSPSTLSASVGDRVTISCRASQSIGTWLAWYQQKPGKAPQLLIYKASSLHSGVPSRFSGSGSGTEFTLTISSLQPDDFATYYCQQYNLYSRTFGQGTKVEIK
modifications: Synthetic antibody

Legend:
MLL-AF9 AML cells = experiment: CFU assay of mouse MLL-AF9 AML cells; format: cell-based; conditions: for colony formation by MLL-AF9 cells: screen of the high-affinity IgGs
Source text: (§1) FIGS. 7A-N. Blocking anti-LILRB3 antibody prevents monocytic AML development. (FIG. 7A) Epitope binning of 30 high-affinity IgGs. (FIG. 7B) CFU assay of mouse MLL-AF9 AML cells in the presence of above IgGs (n=3 independent experiments). (FIG. 7C) Binding affinities of the two IgGs from bin #3. (FIG. 7D) Upper: Schematic of treatment. Lower: Percentages of GFP^+ MLL-AF9 mouse AIL cells in peripheral blood (PB), bone marrow (BM), spleen (SPL), and liver (LV) of mice transplanted with AML cells expressing B3-FL or B3delICD and injected with IgG or anti-LILRB3 #1 N297A (n=3 independent mice). (FIG. 7E) Overall survival of mice transplanted with indicated AML cells as above. (FIG. 7F) CFU assay of MLL-AF9 mouse AML cells expressing B3-FL or B3delICD in the presence of IgG or anti-LILRB3 #1 N297A (n=3 independent experiments) (FIG. 7G) Upper: Schematic of treatment. Recipient mice were injected with mouse IgG or anti-mCD8 to deplete CD8 T cells. Lower: Percentages of GFP^+ MLL-AF9 mouse AML cells in peripheral blood (PB), bone marrow (BM), spleen (SPL), and liver (LV) of mice transplanted with AML cells expressing B3-FL or B3delICD and injected with IgG or anti-LILRB3 #1 LALAPG (n=4 mice). (FIG. 7H) Survival of mice as in panel h (n=4 independent mice). (FIG. 7I) Upper: Schematic of treatment. Lower: Whole-body images of NSG mice transplanted with luciferase-expressing THP-1 cells and treated with IgG or anti-LILRB3 #1 N297A (#1NA). (FIG. 7J) Overall survival of the mice shown in panel h (n=3 independent mice). (FIG. 7K) Upper: Schematic of treatment. Lower: Whole-body images of NSG mice transplanted with luciferase-expressing Molm13 cells, injected with activated T cells, and treated with IgG or #1NA. (FIG. 7L) Luciferase signaling as a function of time in mice treated as described in panel k. (FIG. 7M) Overall survival of mice treated as described in panel k (n=3 independent mice). (FIG. 7N) Analyses of T cells in peripheral blood of mice treated as described in panel 1 at 22 days after Molm13 AML cell transplantation. Upper: Flow cytometry analyses. Lower: Plot of T cell percentages (n=3 independent mice). The data are presented as mean±s.e.m, and p values were calculated by two-tailed t-test except for FIG. 7E, FIG. 7H, FIG. 7J and FIG. 7M by log-rank test.
FIGS. S6A-J. Development of anti-LILRB3 blocking antibodies for suppressing AML development. (FIG. S6a) Upper: Flow chart of strategy for development of fully humanized antibodies against LILRB3. Lower: The identified antibodies were tested in the LILRB3 chimeric receptor reporter cell assay. (FIG. S6b) ELISA results for LILRB3 binders. (FIG. S6c) EC50 values of the anti-LILRB3 antibodies based on ELISA. (FIG. S6d) Affinities of antibodies #32, #33, #67, and #45 to LILRB3 as determined by Octet. (FIG. S6e) Cross-reactivity of the anti-LILRB3 antibodies with LILRAs evaluated with LILRA binding analyses. (FIG. S6f) Cross-reactivity of the anti-LILRB3 antibodies with other LILRBs evaluated with LILRB binding analyses. (FIG. S6g) Interaction with TRAF2 contributes to the effect of LILRB3 on AML development. […] (FIG. S6j) NF-κB signaling target gene expression (measured by qPCR) in THP-1 cells from BM of xenografted NSG mice treated with anti-LILRB3 #1NA or IgG (n=3 individual samples). […]

[1] = test system: MLL-AF9 AML cells expressing B3-FL or B3delICD; experiment: Immuno-competent mice transplanted with MLL-AF9 AML cells expressing B3-FL or B3delICD; format: in vivo, mouse; conditions: versus IgG
Source text: as §1, with “(FIG. 7N) Analyses of T cells in peripheral blood of mice treated as described in panel 1 at 22 days after Molm13 AML cell transplantation. Upper: Flow cytometry analyses. Lower: Plot of T cell percentages (n=3 independent mice).” left out, “test. […]” for “test.”

LILRAs and other LILRBs = experiment: Cross-reactivity with LILRAs and other LILRBs (binding analyses); set-up: species or system human; conditions: versus LILRAs and other LILRBs
Protocol: FIGS. S6A-J. Development of anti-LILRB3 blocking antibodies for suppressing AML development. (FIG. S6a) Upper: Flow chart of strategy for development of fully humanized antibodies against LILRB3. Lower: The identified antibodies were tested in the LILRB3 chimeric receptor reporter cell assay. (FIG. S6b) ELISA results for LILRB3 binders. (FIG. S6c) EC50 values of the anti-LILRB3 antibodies based on ELISA. (FIG. S6d) Affinities of antibodies #32, #33, #67, and #45 to LILRB3 as determined by Octet. (FIG. S6e) Cross-reactivity of the anti-LILRB3 antibodies with LILRAs evaluated with LILRA binding analyses. (FIG. S6f) Cross-reactivity of the anti-LILRB3 antibodies with other LILRBs evaluated with LILRB binding analyses. (FIG. S6g) Interaction with TRAF2 contributes to the effect of LILRB3 on AML development. CFU assay of MLL-AF9 AML cells expressing wild-type LILRB3 or mutant LILRB3 with mutations disrupting TRAF2 binding (AAA, QEE509-511AAA) or disrupting SHP-1/2 interactions (Y596/626F) in the presence of control or anti-LILRB3 antibodies (n=3 wells). […] (FIG. S6j) NF-κB signaling target gene expression (measured by qPCR) in THP-1 cells from BM of xenografted NSG mice treated with anti-LILRB3 #1NA or IgG (n=3 individual samples). The data are presented as mean±s.e.m, and p values were calculated by two-tailed t-test except for FIG. S6i by log-rank test.

LILRB3 [2] = target: T1, LILRB3 (Homo sapiens, UniProt O75022); experiment: Octet-based epitope binning assay; format: binding; conditions: Octet sandwich binning
Protocol: (§2) Affinity measurement and epitope binning: Affinity measurement and epitope binning were done as described previously (Gui et al., 2019). Briefly, antibody affinity was analyzed with the Octet RED96 instrument. Antibody ([…]) was loaded onto the protein A biosensors then exposed to a series of concentrations of recombinant LILRB3 (0.1-200 nmol/L), and background subtraction was used to correct for sensor drift. ForteBio's data analysis software was used to extract association and dissociation rates assuming a 1:1 binding model. The Kd was calculated as the ratio koff/kon. Epitope binning of anti-LILRB3 rabbit antibodies was performed with an Octet RED96 instrument using a classical sandwich epitope binning assay. In these epitope binning assays, primary antibodies (40 μg/ml) were loaded onto protein A biosensors, and remaining Fc-binding sites on the sensor were blocked with a human non-targeting IgG (200 μg/ml). The sensors were then exposed to the 1 μM LILRB3 diluted in 1× kinetics buffer, followed by the secondary antibodies (40 μg/ml). Raw data were processed using ForteBio's Data Analysis Software 7.0. Antibody pairs were assessed for competitive binding. […]

LILRB3 [3] = target: T1, LILRB3; experiment: Affinity measurement with Octet RED96; format: binding; conditions: compared between the two IgGs of bin 3
Protocol: as §2

Molecule	inhibition of LILRB3 signaling (MLL-AF9 AML cells; FIG. 7b)	progress of AML with B3-FL and with B3del ICD [1]	specificity to LILRB3 (LILRAs and other LILRBs)	LILRB3 epitope bin (LILRB3 [2])	colony formation by MLL-AF9 cells (MLL-AF9 AML cells)	binding affinity (LILRB3 [3])
B1	cannot inhibit LILRB3 signaling	suppresses the progresses of both AML with B3-FL and AML with B3del ICD with similar efficacies				
B2			specific to LILRB3	third bin	blocked colony formation by MLL-AF9 cells	higher affinity than #26
B3			specific to LILRB3	third bin	blocked colony formation by MLL-AF9 cells	
